Measurements reported in the supplement of paper PMC9233669.
Variants at the floor of the assay were thinned out.

What was measured:
[1] = system: biotinyl-Leu-oxazolone; assay: self-aminoacylation, catalytic enhancement (BLO) (fold over background); higher = more active; k-Seq, kA / k0A0; sequences stand for … in GGGAAUGGAUCCACAUCUACGAAUUC…UUCACUGCAGACUUGACGAAGCUG
Method in brief: (§1)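 Catalytic enhancement equals the median kA over the uncatalyzed rate, the latter read from the low-activity peak of a bimodal Gaussian fit. Values of kA came from fitting each sequence's fraction reacted to a pseudo-first-order model, with 1000 bootstraps. Reacted RNA was captured with streptavidin and quantified by triplicate qPCR and Illumina sequencing after 90 minutes at room temperature with 2–1250 μM biotinyl-aminoacyl-oxazolone and 0.43 μM mutagenized RNA pools bearing a 21-nt variable region.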

[2] = system: biotinyl-Phe-oxazolone; assay: self-aminoacylation, catalytic enhancement (BFO) (fold over background); higher = more active; k-Seq, kA / k0A0; sequences stand for … in GGGAAUGGAUCCACAUCUACGAAUUC…UUCACUGCAGACUUGACGAAGCUG
Method in brief: as §1

[3] = system: biotinyl-Ile-oxazolone; assay: self-aminoacylation, catalytic enhancement (BIO) (fold over background); higher = more active; k-Seq, kA / k0A0; sequences stand for … in GGGAAUGGAUCCACAUCUACGAAUUC…UUCACUGCAGACUUGACGAAGCUG
Method in brief: as §1

[4] = system: biotinyl-Val-oxazolone; assay: self-aminoacylation, catalytic enhancement (BVO) (fold over background); higher = more active; k-Seq, kA / k0A0; sequences stand for … in GGGAAUGGAUCCACAUCUACGAAUUC…UUCACUGCAGACUUGACGAAGCUG
Method in brief: as §1

[5] = system: biotinyl-Met-oxazolone; assay: self-aminoacylation, catalytic enhancement (BMO) (fold over background); higher = more active; k-Seq, kA / k0A0; sequences stand for … in GGGAAUGGAUCCACAUCUACGAAUUC…UUCACUGCAGACUUGACGAAGCUG
Method in brief: as §1

[6] = system: biotinyl-Trp-oxazolone; assay: self-aminoacylation, catalytic enhancement (BWO) (fold over background); higher = more active; k-Seq, kA / k0A0; sequences stand for … in GGGAAUGGAUCCACAUCUACGAAUUC…UUCACUGCAGACUUGACGAAGCUG
Method in brief: as §1

Row | Sequence | self-aminoacylation [1] | self-aminoacylation [2] | self-aminoacylation [3] | self-aminoacylation [4] | self-aminoacylation [5] | self-aminoacylation [6]
1 | CUACUUCAAUCAAUCGGUAUG [Fam1A.1 aminoacylation ribozyme variant] | 0.88 | 10.8 | 0.797 | 0.848 | 0.961 | 6.33
2 | CAACACUUCAAGCAUUCGGUC [Fam1B.1 aminoacylation ribozyme variant] | 1.58 | 1.04 | 1.71 | 1.76 | 1.61 | 1.83
3 | AUUCACCUAGGUUAUCGGGAG [Fam2.2 aminoacylation ribozyme variant] | 1.17 | 0.308 | 1.21 | 1.55 | 1.17 | 0.528
4 | CAACUCCAAACAAUCGGUCUG [Fam1A.1 aminoacylation ribozyme variant] | 1.1 | 6.95 | 1.31 | 1.14 | 1.36 | 3.05
5 | AUUACCCAGGUCAUCGAGUAA [Fam2.1 aminoacylation ribozyme variant] | 1.16 | 1.09 | 1.49 | 1.06 | 1.54 | 1.57
6 | AAUACCCUGGUCUUCGAGUGA [Fam2.1 aminoacylation ribozyme variant] | 3.26 | 12.6 | 2.2 | 2.32 | 3.34 | 4.72
7 | GAUCACCUAGGUCAUCGGGUG [Fam2.2 aminoacylation ribozyme variant] | 3.71 | 17.2 | 3.45 | 3.54 | 3.44 | 5.58
8 | CCACUUCAAACAGUCGGUCUG [Fam1A.1 aminoacylation ribozyme variant] | 0.89 | 0.637 | 1.19 | 1.39 | 1.09 | 1.54
9 | AUUCACCUAGGGCAUAGGGUG [Fam2.2 aminoacylation ribozyme variant] | 6.33 | 38.6 | 3.22 | 2.76 | 4.74 | 4.16
10 | ACUACCCUGGUAAUCGAGUGA [Fam2.1 aminoacylation ribozyme variant] | 7.43 | 43.4 | 3.32 | 3.16 | 7.36 | 9.29
11 | GUUACCCUGGUCAUCGAGUGU [Fam2.1 aminoacylation ribozyme variant] | 114 | 825 | 31.5 | 37.1 | 111 | 102
12 | CUACUUCAACCAAUCGCUCUG [Fam1A.1 aminoacylation ribozyme variant] | 0.843 | 1.4 | 0.872 | 0.729 | 0.806 | 1.43
13 | AAGUUUGCUAAUAGUCGCCAU [Fam3.1 aminoacylation ribozyme variant] | 1.24 | 0.768 | 1.27 | 1.2 | 1.44 | 1.08
14 | AUCCGCCUAGGUCAUCGGGUG [Fam2.2 aminoacylation ribozyme variant] | 18.5 | 120 | 10.3 | 10.1 | 15.9 | 16.4
15 | CCACACUUCAAGCAAUUGGGC [Fam1B.1 aminoacylation ribozyme variant] | 2.16 | 1 | 1.79 | 1.98 | 2.12 | 2.98
16 | AUUACCAUGGCCAUCGAGUGA [Fam2.1 aminoacylation ribozyme variant] | 3.1 | 2.77 | 1.83 | 2.27 | 2.67 | 3.98
17 | AAGUUUGCUAAUGAUCGCAAG [Fam3.1 aminoacylation ribozyme variant] | 0.52 | 0.952 | 0.697 | 0.603 | 0.488 | 0.749
18 | AGGUUUGCGAAUAGUCGCAAG [Fam3.1 aminoacylation ribozyme variant] | 1.82 | 7.75 | 1.63 | 1.75 | 2.24 | 3.06
19 | CGACAGUUCAAGCAAUCGGUC [Fam1B.1 aminoacylation ribozyme variant] | 1.45 | 2.42 | 1.48 | 1.53 | 1.19 | 2.43
20 | CUACUUAAAACAAUGGGUCUG [Fam1A.1 aminoacylation ribozyme variant] | 1.03 | 0.9 | 1.05 | 1.05 | 1.28 | 0.653
21 | CCACACUUCUAGCAAUCGCUC [Fam1B.1 aminoacylation ribozyme variant] | 0.829 | 1.02 | 1.11 | 1.04 | 0.72 | 0.453
